One assay deals with c-FMS (Homo sapiens) (UniProt P07333). The conditions noted are these: cited from earlier work.
Assay [1] deals with M-CSFRGD variant 4.24, purified soluble protein (human) (UniProt P09603). Put plainly: SPR; ProteOn XPR36; M-CSF variants immobilised by amine coupling; c-FMS or αvβ3 integrin flowed at 0, 12.5, 25, 50, 100 and 200 nM, 50 μl/min, 25 °C, PBS + 0.005% Tween; KD from the equilibrium binding phase; apparent (S9 Fig legend).
Assay [2] deals with M-CSFRGD variant 5.6, purified soluble protein (human) (UniProt P09603). The description is as above.
The target of assay [3] is M-CSFRGD variant 4.22, purified soluble protein (human) (UniProt P09603). Described as above.
In assay [4] the target is M-CSF_(c-FMS), monospecific M-CSF that can bind only c-FMS (human) (UniProt P09603). The assay is described as above.
For assay [5], the target named is M-CSF_(αvβ3), monospecific M-CSF that can bind αvβ3 integrin (human) (UniProt P09603). The assay is described as above.
For assay [6], the target named is αvβ3 integrin (Homo sapiens) (UniProt P06756). Particulars: cited from earlier work.
For assay [7], the target named is T1, soluble Fc-conjugated human c-FMS (human, UniProt P07333 20-517).
T1 construct: c-FMS (M-CSF receptor, CSF-1R), human, soluble form; Detected with goat anti-human Fc FITC; also called c-FMS-Fc; soluble c-FMS; source: bought: R&D systems
In words: flow cytometry on cells; yeast surface display: yeast displaying M-CSF incubated with soluble c-FMS-Fc (0.5–2000 nM for the titration, 100 nM for the libraries, 50 nM for single clones) in PBS + 1% BSA, 1 h at room temperature; detected with goat anti-human Fc FITC; apparent. Particulars: one partner purified.

Chain of c-FMS (Homo sapiens) (P07333 20-517): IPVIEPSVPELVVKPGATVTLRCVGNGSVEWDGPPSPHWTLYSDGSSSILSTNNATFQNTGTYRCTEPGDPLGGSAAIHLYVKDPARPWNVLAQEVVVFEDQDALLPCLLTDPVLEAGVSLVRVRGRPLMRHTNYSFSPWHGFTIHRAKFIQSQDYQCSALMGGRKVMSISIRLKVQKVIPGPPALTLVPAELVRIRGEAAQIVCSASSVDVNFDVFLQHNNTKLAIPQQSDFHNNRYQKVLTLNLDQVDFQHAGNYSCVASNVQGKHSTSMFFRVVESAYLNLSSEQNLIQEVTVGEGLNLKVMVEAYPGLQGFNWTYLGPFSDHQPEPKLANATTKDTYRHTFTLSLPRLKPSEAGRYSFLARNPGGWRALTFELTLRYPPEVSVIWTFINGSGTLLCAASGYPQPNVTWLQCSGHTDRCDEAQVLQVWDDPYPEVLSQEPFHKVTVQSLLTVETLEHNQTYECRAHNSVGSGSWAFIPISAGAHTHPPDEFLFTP
T1 sequence (P07333 20-517): as above
Chain of αvβ3 integrin (Homo sapiens) (P06756 31-992, chain 1 of 2): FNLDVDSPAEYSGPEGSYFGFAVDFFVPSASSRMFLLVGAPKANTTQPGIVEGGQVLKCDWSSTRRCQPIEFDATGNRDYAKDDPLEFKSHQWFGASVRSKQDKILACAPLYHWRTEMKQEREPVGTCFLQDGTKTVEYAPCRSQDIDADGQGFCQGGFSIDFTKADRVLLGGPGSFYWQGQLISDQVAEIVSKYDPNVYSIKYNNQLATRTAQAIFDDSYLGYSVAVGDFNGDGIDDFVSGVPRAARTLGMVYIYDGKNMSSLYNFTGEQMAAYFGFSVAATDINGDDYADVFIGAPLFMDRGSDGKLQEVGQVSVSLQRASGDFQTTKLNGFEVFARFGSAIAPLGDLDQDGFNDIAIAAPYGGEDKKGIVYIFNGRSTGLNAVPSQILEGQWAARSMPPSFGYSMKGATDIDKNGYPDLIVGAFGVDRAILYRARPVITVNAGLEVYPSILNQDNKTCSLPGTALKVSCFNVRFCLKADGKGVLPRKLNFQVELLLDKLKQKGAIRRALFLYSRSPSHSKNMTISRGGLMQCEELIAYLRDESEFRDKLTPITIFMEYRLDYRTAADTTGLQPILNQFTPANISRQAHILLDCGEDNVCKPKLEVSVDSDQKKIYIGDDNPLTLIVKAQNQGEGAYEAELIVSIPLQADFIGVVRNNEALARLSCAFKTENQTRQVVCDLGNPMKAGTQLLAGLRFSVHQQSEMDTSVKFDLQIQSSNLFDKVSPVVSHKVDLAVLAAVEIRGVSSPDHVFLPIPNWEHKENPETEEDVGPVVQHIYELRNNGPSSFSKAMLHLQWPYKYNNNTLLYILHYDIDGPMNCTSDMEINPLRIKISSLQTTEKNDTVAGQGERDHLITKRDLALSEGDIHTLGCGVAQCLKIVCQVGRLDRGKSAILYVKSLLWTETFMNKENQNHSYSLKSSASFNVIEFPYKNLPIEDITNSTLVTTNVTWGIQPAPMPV
Chain of αvβ3 integrin (Homo sapiens) (P05106 27-718, chain 2 of 2, further chain): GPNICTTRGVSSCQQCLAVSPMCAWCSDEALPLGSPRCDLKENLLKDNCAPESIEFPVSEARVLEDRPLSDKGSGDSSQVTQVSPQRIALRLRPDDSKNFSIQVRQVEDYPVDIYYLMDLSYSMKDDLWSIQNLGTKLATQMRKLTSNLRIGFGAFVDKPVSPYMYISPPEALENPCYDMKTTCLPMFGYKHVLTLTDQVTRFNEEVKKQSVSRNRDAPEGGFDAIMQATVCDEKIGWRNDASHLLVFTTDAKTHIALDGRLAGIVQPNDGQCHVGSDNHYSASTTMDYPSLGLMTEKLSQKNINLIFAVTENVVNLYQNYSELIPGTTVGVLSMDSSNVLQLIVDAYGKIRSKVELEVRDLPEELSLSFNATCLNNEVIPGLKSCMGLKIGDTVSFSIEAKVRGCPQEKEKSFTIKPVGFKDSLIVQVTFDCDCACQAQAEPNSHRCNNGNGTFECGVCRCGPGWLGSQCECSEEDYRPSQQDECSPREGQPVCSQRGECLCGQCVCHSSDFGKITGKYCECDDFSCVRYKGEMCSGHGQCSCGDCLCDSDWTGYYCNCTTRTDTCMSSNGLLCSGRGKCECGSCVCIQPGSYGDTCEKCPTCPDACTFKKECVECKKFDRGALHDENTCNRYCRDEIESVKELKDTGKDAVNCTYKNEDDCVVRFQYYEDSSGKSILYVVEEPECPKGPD

Regarding M-CSF (from UniProt P09603), the Kd with c-FMS (Homo sapiens) was 13.6 nM.

As for “human c-FMS soluble protein (from UniProt P07333 20-517) (receptor)”, the Kd was determined as 219 nM in assay [1], 96 nM in assay [2], 152 nM in assay [3] and 195 nM in assay [4].

In the case of “soluble human αvβ3 integrin (from UniProt P06756 31-1048; P05106 27-718) (complex)”, the Kd in assay [1] is 108 nM; in assay [2], 245 nM; in assay [3], 199 nM; in assay [5], 231 nM.

Regarding vitronectin (from UniProt P04004), in assay [6], the Kd is 40.7 nM.

B1: M-CSF_(C31S), displayed on the yeast surface (ligand)
chain: EEVSEYCSHMIGSGHLQSLQRLIDSQMETSSQITFEFVDQEQLKDPVCYLKKAFLLVQDIMEDTMRFRDNTPNAIAIVQLQELSLRLKSCFTKDYEEHDKACVRTFYETPLQLLEKVKNVFNETKNLLDKDWNIFSKNCNNSFAECSSQ
modifications: Yeast-displayed Aga fusion with c-myc tag (carrier left out). Mature numbering +32 = precursor. Limits follow the M-CSF part of PDB 4WRL entity 2 (mature 1-149); the paper's own limits are not …
With B1, the Kd in assay [7] was 20 nM.

These data come from article PMC6126843, “A dual-specific macrophage colony-stimulating factor antagonist of c-FMS and αvβ3 integrin for osteoporosis therapy” (PLoS Biology, 2018).
